Where a chain is given by its changes, count along the chain named. Numbers in names are those of the source.
B1: H1H27731P-N297Q-LP1 (conjugate)
VH: QLQLQESGPGLVKPSETLSLTCTVSGGSISRISYYWGWIRQPPGKGLEWIGSIYDSGSTYYNPSLKSRVTISIDTSKNQFSLKLSSVTAADTAVYYCVRYSSSSAFAFDYWGQGTLVTVSS
VL: DIQMTQSPSSVSASVGDRVTITCRASQGISSWLAWYQQKPGKAPKLLIYAASSLQSGVPSRFSGSGSGTDFTLTISSLQPEDFATYYCQQANSFPFTFGPGTKVDIKR
B2: H1H27754P-N297Q-LP1 (conjugate)
VH: EVQLVESGGGLVQPGGSLRLSCAASGFTFRTYAMTWVRQAPGKGLDWVSAITGDGGNTYYADSVKGRFTISRDNSKNTLYLQMNSLRAEDTAIYYCAKDQRFSFALYYFDYWGQGTLVTVSS
VL: B1 VL with K42N, S52F, S93N, F96W, P100Q, D105E
B3: H1H27747P-N297Q-LP1 (conjugate)
VH: QVQLVESGGAVVQPGRSLRLSCAASGFTFSYYGMHWVRQAPGKGLEWVAVISYDGSKKYYADSVKGRFTISRDNSKNTLYLQMNSLRAEDTAVYYCAKDLTVDFYYGMDVWGQGTTVTVSS
VL: B1 VL with A51T, V58A, Y87F, F96Y, P100Q, V104L, D105E
B4: H1H27734P-N297Q-LP1 (conjugate)
VH: EVQLVESRGGLVQPGGSLRLSCAASGFTFSSYAMSWVRQAPGKGLEWVSAISGSGGSTFYADSVKGRFTISRDNSKNTVYLQMNSLRAEDTAVYYCAKALVLRFLEWLGDYWGQGTLVTVSS
VL: DIQMTQSPSTLSASVGDRVTITCRASQSISSWLAWFQQKPGKAPKLLIYKASSLESGVPSRFSGSGSGTEFTLTISSLQPDDFATYYCQQYKSYWTFGQGTKVEIKR
B5: H1H27729P-N297Q-LP1 (conjugate)
VH: QVQLVESGGGLVKPGGSLRLSCAASGFIFSDYYMSWIRQAPGKGLEWVSYISSSGTTIYGDSVKGRFTMSRDNAKNSLYLQMNSLRAEDTAVYYCARNYALFDYWGQGTLVTVSS
VL: DIQMTQSPSSLSASVGDRVTITCQASQDISKYLNWYQQKPGKAPKLLIYYTSNLETGVPSRFSGSGSGTDFTFTISSLQPEDIATYYCHQSDYLPFTFGPGTKVDIKR
B6: H1H27739P-N297Q-LP1 (conjugate)
VH: EVQLVESGGGLVQPGGSLRLSCTASGFTFSSYAMSWVRQAPGKGLEWVSAISGTGSSTYFTDSVKGRFAISRDNSKNTLYLQMNSLRAEDTAVYYCAKDGEWLSTVTLFDYWGQGTLVTVSS
VL: EIVMTQSPATLSVSPGERATLSCRASQSVSSNLAWYQQKPGQAPRLLIYGASTRATGIPARFSGSGSGTDFTLTISSLQSEDFALYYCQQYFIWPPHPTFGPGTKVDIKR
B7: H1H21234N-N297Q-LP3 (conjugate)
VH: QVQLQESGPGLVKPSETLSLTCTVTGGSISRNYWSWIRQPPGKGLEWIGYIYYSGSIDYNPSLKSRVTISVDTSKNQFSLKLSSMTAADTAVYYCARDRWNWKYGMDVWGQGTTVIVSS
VL: EIVLTQSPGTLSLSPGERATLSCRASQTVRNNYLAWYHQKPGQAPRLLIYGASSRATGIPDRFSGSGSGTDFTLTISRLEPEDFTVYYCHQYGNSPWTFGQGTKMEIKR

Target: T1, His9-hMSR1 (human MSR1 extracellular domain) (Homo sapiens, UniProt P21757)
T1 construct: human MSR1 extracellular domain expressed with a N-terminal nonahistidine tag; His9 (nonahistidine) (N); purchased R&D Systems 2708-MS
T1 sequence (P21757 77-451 limits assumed): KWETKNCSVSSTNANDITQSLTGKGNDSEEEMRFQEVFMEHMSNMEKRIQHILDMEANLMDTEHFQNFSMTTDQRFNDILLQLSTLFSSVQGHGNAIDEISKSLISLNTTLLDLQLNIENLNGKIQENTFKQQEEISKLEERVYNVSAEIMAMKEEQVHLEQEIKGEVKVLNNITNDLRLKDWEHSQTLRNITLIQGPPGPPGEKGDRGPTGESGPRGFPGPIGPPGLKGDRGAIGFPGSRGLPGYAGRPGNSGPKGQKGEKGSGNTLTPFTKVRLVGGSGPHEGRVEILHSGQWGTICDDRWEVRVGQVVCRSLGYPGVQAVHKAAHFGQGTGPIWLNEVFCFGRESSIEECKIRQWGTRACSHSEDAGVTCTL
Assay: Biacore T200 surface plasmon resonance binding kinetics of anti-MSR1 antibody-drug conjugates and parental antibodies
Details: 25° C.; Table 19, antibody-LXR ADCs and unconjugated antibodies
Experimental: The MSR1 antibodies disclosed herein were conjugated to various liver X receptor (LXR) payloads or various steroid payloads. This example describes how equilibrium dissociation constant (KD) values for human MSR1 reagents binding to human anti-MSR1 antibody-drug conjugates and their corresponding unconjugated parental antibodies were determined using a real-time surface plasmon resonance-based Biacore T200 biosensor.
All binding studies were performed in 10 mM HEPES, 300 mM NaCl, 3 mM EDTA, and 0.05% v/v Surfactant Tween-20, pH 7.4 (HBS-ET) running buffer at 25° C. The Biacore CM4 sensor chip surface was first derivatized by amine coupling with the goat anti-human Fcγ specific polyclonal antibody (Jackson ImmunoResearch Laboratories, Cat #BR-1008-39) to capture anti-MSR1 monoclonal antibodies. Binding studies were performed on human MSR1 extracellular domain expressed with a N-terminal nonahistidine tag (His9-hMSR1; R&D Systems, Cat #2708-MS).
The association rate (ka) and dissociation rate (kd) were determined by fitting the real-time binding sensorgrams to a 1:1 binding model with mass transport limitation using Scrubber 2.0c curve-fitting software. Binding dissociation equilibrium constant (KD) and dissociative half-life (t½) were calculated from the kinetic rates as: […]
Binding kinetics parameters for His9-hMSR1 binding to different anti-MSR1 antibody-LXR ADCs and their unconjugated parental antibodies at 25° C. are shown in Table 19. “LP1” represents a linker-payload for which the payload structure is provided in Example 11.
The binding studies were repeated with anti-MSR1 antibody H1H21234-N297Q and steroid linker payloads (LPs). “LP3” represents a linker-payload for which the structure is provided in Example 23, and “LP13” represents a linker-payload for which the structure is provided in Example 24.

Molecule	ka [M⁻¹ s⁻¹]
B1	128000
B2	177000
B3	136000
B4	69300
B5	54700
B6	88800

Same assay, conditions: 25° C.; Table 19; * = no dissociation observed, kd manually fixed at 1.00E−05

Molecule	kd
B1	1.00E−05* s^−1
B2	1.00E−05* s^−1
B3	0.000203 s⁻¹
B4	0.000449 s⁻¹
B5	0.000718 s⁻¹
B6	0.000722 s⁻¹

Same assay, conditions: 25° C.; Table 20, antibody-steroid ADCs and unconjugated antibody

Molecule	ka [M⁻¹ s⁻¹]
B7	417000

Same assay, conditions: 25° C.; Table 20; * = no dissociation observed, kd manually fixed at 1.00E−05

Molecule	kd [s⁻¹]
B7	1e-05

Tested on: LXR (THP1/LXR-Luc cells)
Assay: LXR-luciferase reporter bioassay (Example 31)
Type: cell-based, human
Details: differentiated THP1/LXR-Luc cells, 48 hours
Source text: Generation of assay cell line. To test the efficacy of anti-MSR1 antibody-LXR conjugates in vitro, a cell-based LXR responsive luciferase reporter assay was developed. To generate the assay cell line, a LXR regulated luciferase reporter gene [Cignal Lenti LXR Reporter (luc) kit (Qiagen, Cat #CLS-001 L)] was transduced into THP1 cells, and cells were selected for two weeks in puromycin. The lentivirus expresses the firefly luciferase gene under the control of a minimal CMV promoter and tandem repeats of the LXR transcriptional response element. The resulting cell line is referred to as THP1/LXR-Luc cells.
Assay protocol. THP1/LXR-Luc cells were seeded onto 96 well plates at 40,000 cells/well in media containing RPMI supplemented with 10% FBS and pencillin/streptomycin and subsequently differentiated with 200 nM Phorbol Myristate Acetate (PMA) for 3 days. After the 3-day differentiation period, three-fold serial dilutions of antibody drug conjugates, unconjugated antibodies, or free payloads in fresh media were added to the cells at final concentration ranging from 100 nM to 0.01 nM. Media alone served as a blank control. Forty-eight hours later, luciferase activity was determined after the addition of One-Glo™ reagent (Promega, Cat #E6130) to each well. Relative light units (RLUs) were measured on a Victor luminometer (PerkinElmer) and EC50 values were determined using a four-parameter logistic equation over a 10-point dose response curve (GraphPad Prism). The signal to noise (S/N) was determined by calculating the ratio of RLU of standard one over RLU of standard eight for each of the unconjugated anti-MSR1 antibodies or free payloads. “LP #” represents a linker-payload for which the corresponding structures are provided elsewhere herein, and “P #” represents a payload for which the corresponding structures are provided elsewhere herein.

Molecule	EC50 [nM]
B1	1.46
B2	1.3
B3	4.77
B4	5.19
B5	1.64
B6	1.6

Same assay, conditions: signal to noise, ratio of RLU of standard one over standard eight; 48 hours

Molecule	S/N
B1	15.5
B2	17.3
B3	20.6
B4	17.8
B5	14.5
B6	21.0

Reference: patent US12497460B2, “Anti-MSR1 antibodies and methods of use thereof” (REGENERON PHARMACEUTICALS, INC., priority 2018, dated 2025)
